Measurements published in US20110243959A1, “MODULATING NEURONAL PLASTICITY AND TREATMENT OF NEURONAL LOSS BY MODULATIONG WNT7A OR WNT7B MODULATION” (priority 2008, published 2011).

B1: sFRP-1: Mature recombinant secreted frizzled-related protein 1 from R&D systems, used as local inhibitor of Wnt signaling (protein, UniProt Q8N474 32-314, looked up)
Secreted frizzled-related …: SEYDYVSFQSDIGPYQSGRFYTKPPQCVDIPADLRLCHNVGYKKMVLPNLLEHETMAEVKQQASSWVPLLNKNCHAGTQVFLCSLFAPVCLDRPIYPCRWLCEAVRDSCEPVMQFFGFYWPEMLKCDKFPEGDVCIAMTPPNATEASKPQGTTVCPPCDNELKSEAIIEHLCASEFALRMKIKEVKKENGDKKIVPKKKKPLKLGPIKKKDLKKLVLYLKNGADCPCHQLDNLSHHFLIMGRKVKSQYLLTAIHKWDKKNKEFKNFMKKMKNHECPTFQSVFK

Key:
[1] = system: Wnt signaling; test: Local application into CA3 in mice housed under control conditions; format: in vivo
Description: (§1) For enriched environment (EE) experiments, male mice were housed in groups of 3-4 littermates in large (rat) cages equipped with 3 running wheels per cage, toys and hiding spaces. Control mice were male littermates (3-4), which were housed individually in small standard cages without special equipment. Unless stated otherwise, EE was started at 1 month of age, and lasted 20 days.
Mature recombinant sFRP-1 was obtained from R&D systems and dissolved in PBS/0.1% BSA (vehicle: PBS/0.1% BSA) to a working concentration of 50 μg/ml. Wnt agonist (Calbiochem) was dissolved in a small volume of DMSO and then further diluted with PBS to a final concentration of 10 mM (DMSO<1:1000). PBS/DMSO solution alone was used as vehicle for control injections. Antibodies were from the following sources: Bassoon, anti-mouse Alexa Fluor 546 and 647, anti-goat Alexa Fluor 546 and 633, donkey anti-goat Alexa Fluor 568 (Molecular Probes); NeuN anti-mouse (CHEMICON); anti-human Wnt7a/b antibody (R&D, P56706). […] Reagents, with their working concentrations were: TTX (Laxotan, 1 μM, stock in acetate buffer), Bicuculine (SIGMA, 20 μM in water), CGP (SIGMA, 0.4 μM in water), Picrotoxin (SIGMA, 20 μM in water).
Injection canulas were implanted unilaterally (left hemisphere) above the CA3 b-a region of Isofluorane-anesthetized mice using stereotactical guidance. Canulas were fixed with dental cement. Implantation coordinates from Bregma (implantation 0.5 mm above injection site as the needle surpassed canula by 0.5 mm): ante-posterior −2.06 mm, lateral 2.5 mm, dorso-ventral −1.4 mm. Animals were allowed to recover for 3 days after surgery before drug treatments started.
(§2) Animals were injected under Isofluorane anesthesia with 300 nl of either drug (treated) or vehicle (control) through a small needle guided through the implanted canulas every 3-4 days for 12-21 days (depending on experiment). Canula positions were confirmed in all analyzed sections to be above Ca3b-a without harming the mossy fiber projection or CA3 pyramidal cell dendrites.
(§3) Microscope images were processed and analysed using Metamorph 6.1, Imaris 4.2 (Bitplane AG) and ImageJ softwares. We defined LMTs as mossy fiber terminal regions of >2.5 μm diameter in CA3a-c, which were arranged either en-passant, or as side structures connected to the mossy fiber axon or another LMT by an axonal process (satellite). For the quantification of LMT sizes in 3D (volumes) at least three confocal 3D stacks were acquired in CA3b for each preparation (three mice per condition), and analyzed using Imaris 4.2 software.
Individual LMT volumes contained in these cubes were measured using the Surpass/ Isosurface function of the software. Non-saturating imaging conditions were chosen for all size analyses. An intensity threshold of 300 was chosen to selectively analyze LMTs (excluding axons and other smaller objects). All identified objects were verified by eye inspection. Generally, the settings for the analysis were identical for all samples of all ages, but in some cases we verified the settings through internal calibration using the diameters and signal intensities of axons. After these measurements, LMTs were grouped according to their volumes. The volumes of all LMTs in one group were added up, and expressed as percentage of the total volume of all LMTs measured per cube. For the quantification of LMT sizes in 2D, MIPs of 3D stacks were created in ImageJ, and LMT surfaces (areas in μm^2) were measured. For all samples, LMTs were inspected by eye in 3D to be identified as individual LMTs and not fused with other LMTs. LMT numbers were determined in CA3b as follows: the sum of all mGFP-positive LMTs within a region of interest (ROI; a MIP) was divided by the number of mGFP-labeled axons within that ROI, and by the length along CA3 included in the ROI. LMT numbers were then normalized to 100 μm axon length. Wnt7a/b staining intensities were measured on single confocal planes. […]

[2] = system: Wnt signaling; test: Application to organotypic slice cultures; format: cell-based; conditions: organotypic slice cultures (not shown)
Description: Organotypic slice cultures were based on the Stoppini method (Stoppini et al., 1991), as described (De Paola et al., 2003).
Immunocytochemistry preparations were imaged on an LSM510 confocal microscope (Zeiss) using a 40× (1.4) oil-immersion objective. Imaging of organotypic slice cultures was as described. Briefly, images were acquired with an LSM 510 (Zeiss), using a 40× (1.4) oil objective (Zeiss); image sizes were 2048×2048, and stepsizes were 0.4 μm. Where indicated, drugs were replaced every 3-4 days, together with fresh medium.
as §3

[3] = system: Wnt signaling; test: sFRP-1 applied locally into hippocampal CA3 through a canule in mice housed under enriched environment (EE) conditions; format: in vivo; conditions: sFRP-1 present in CA3 during entire EE procedure, vs vehicle; no effect in dentate gyrus
Description: as §1
Mature recombinant sFRP-1 was obtained from R&D systems and dissolved in PBS/0.1% BSA (vehicle: PBS/0.1% BSA) to a working concentration of 50 μg/ml. Wnt agonist (Calbiochem) was dissolved in a small volume of DMSO and then further diluted with PBS to a final concentration of 10 mM (DMSO<1:1000). […]
as §2
(§4) Microscope images were processed and analysed using Metamorph 6.1, Imaris 4.2 (Bitplane AG) and ImageJ softwares. […] For the quantification of LMT sizes in 3D (volumes) at least three confocal 3D stacks were acquired in CA3b for each preparation (three mice per condition), and analyzed using Imaris 4.2 software. […]

[4] = system: Wnt signaling; test: sFRP-1 applied in Rab3a-/- mice housed under EE conditions; format: in vivo
Description: Transgenic mice expressing membrane-targeted GFP in only a few neurons (Thy1-mGFPs, L21 and L15) were as described (De Paola et al., 2003). Transgenic males were crossed over more than ten generations with non-transgenic F1 offsprings from C57BI6×BalbC crosses, so that the genetic background of the mice was 50% each of C57BI6 and BalbC. Rab3a knockout mice (B6; 129S-Rab3a^tm1Sud/J) were obtained from the Jackson Laboratory and backcrossed into Thy1-mGFP (L21) mice.
For enriched environment (EE) experiments, male mice were housed in groups of 3-4 littermates in large (rat) cages equipped with 3 running wheels per cage, toys and hiding spaces. […]
as §2, §4

[5] = local into CA3, control housing

| Molecule | AZ densities at LMTs [1, 5] | stratum lucidum AZ numbers [1, 5] | stratum lucidum LMT numbers [1, 5] | LMT satellite numbers [2] | effect of the enriched housing conditions on AZ numbers [3] | effect of the enriched housing conditions on satellite numbers [3] | effect of EE on LMT complexities [4] | effect of EE on LMT numbers [4] | contents of AZs per LMT [1, 5] | fractions of LMTs with satellites ([1]; local into CA3, control housing (not shown)) |
| --- | --- | --- | --- | --- | --- | --- | --- | --- | --- | --- |
| COc1cccc(-c2cnc(N)nc2NCc2ccc3c(c2)OCO3)c1 [Wnt agonist, 2-amino-4-[3,4-(methylenedioxy)benzyl-amino]-5-(3-methoxyphenyl)pyrimidine, reference compound] | increased | increased | increased | increases | – | – | – | – | – | – |
| B1 | – | reduction | – | – | effectively suppresses the effect of the enriched housing conditions | effectively suppresses the effect of the enriched housing conditions | effectively suppressed the effect of EE | effectively suppressed the effect of EE | reduction | reduction |
